Holding throughout (test): EMSA
For orientation: A gel shift assay detects complexes by their altered migration in electrophoresis.

Data set [1] relates to PRC2-AEBP2L(TEV)-JARID2 cleaved with TEV (Homo sapiens). As to conditions: with TEV; Hill 2.7 ± 0.4; CpG24 EMSA/FA: 50 mM Tris pH 7.5, 100 mM KCl (FA 25/50/100), 0.05% NP40, 0.1 mg/ml BSA, 2 mM 2-ME, 30 C; CpG46 FA: 20 mM Tris pH 8.0, 100 mM NaCl, 0.1 mM ….
The test system of data set [2] is PRC2-AEBP2L mt1A2A-JARID2 E37A;E38A;E39A;E40A;E41A;E42A;E43A;E44A;E45A;E46A;E47A;E48A;E95A;D96A;E97A;D98A;E99A;E100A;E101A;D102A;D103A;E104A;E105A;E106A;E107A;D108A;E109A (Homo sapiens), Q6ZN18-2+Q92833+Q15910-2+Q15022+O75530+Q09028. As to conditions: 2.5 mM Mg2+, 100 mM NaCl; CpG24 EMSA/FA: 50 mM Tris pH 7.5, 100 mM KCl (FA 25/50/100), 0.05% NP40, 0.1 mg/ml BSA, 2 mM 2-ME, 30 C; CpG46 FA: 20 mM Tris pH 8.0, 100 mM NaCl, 0.1 mM ….

The test system of data set [3] is PRC2-AEBP2L-JARID2 wild-type (Homo sapiens), Q6ZN18-2+Q92833+Q15910-2+Q15022+O75530+Q09028. As to conditions: 2.5 mM Mg2+, 100 mM NaCl; CpG24 EMSA/FA: 50 mM Tris pH 7.5, 100 mM KCl (FA 25/50/100), 0.05% NP40, 0.1 mg/ml BSA, 2 mM 2-ME, 30 C; CpG46 FA: 20 mM Tris pH 8.0, 100 mM NaCl, 0.1 mM ….
In data set [4] the test system is PRC2-AEBP2L(TEV)-JARID2, uncleaved (Homo sapiens). As to conditions: no TEV; Hill 2.4 ± 0.2; CpG24 EMSA/FA: 50 mM Tris pH 7.5, 100 mM KCl (FA 25/50/100), 0.05% NP40, 0.1 mg/ml BSA, 2 mM 2-ME, 30 C; CpG46 FA: 20 mM Tris pH 8.0, 100 mM NaCl, 0.1 mM ….

Consider NCP182, for which the Kd (as a rule, the equilibrium constant for the complex coming apart) was found to be 18.7 nM in data set [1], 15.6 nM in data set [2], 33 nM in data set [3] and 24.8 nM in data set [4].
